The target in this experiment is T1, Escherichia coli RecB (E. coli, UniProt P08394 1-1180).
T1 sequence: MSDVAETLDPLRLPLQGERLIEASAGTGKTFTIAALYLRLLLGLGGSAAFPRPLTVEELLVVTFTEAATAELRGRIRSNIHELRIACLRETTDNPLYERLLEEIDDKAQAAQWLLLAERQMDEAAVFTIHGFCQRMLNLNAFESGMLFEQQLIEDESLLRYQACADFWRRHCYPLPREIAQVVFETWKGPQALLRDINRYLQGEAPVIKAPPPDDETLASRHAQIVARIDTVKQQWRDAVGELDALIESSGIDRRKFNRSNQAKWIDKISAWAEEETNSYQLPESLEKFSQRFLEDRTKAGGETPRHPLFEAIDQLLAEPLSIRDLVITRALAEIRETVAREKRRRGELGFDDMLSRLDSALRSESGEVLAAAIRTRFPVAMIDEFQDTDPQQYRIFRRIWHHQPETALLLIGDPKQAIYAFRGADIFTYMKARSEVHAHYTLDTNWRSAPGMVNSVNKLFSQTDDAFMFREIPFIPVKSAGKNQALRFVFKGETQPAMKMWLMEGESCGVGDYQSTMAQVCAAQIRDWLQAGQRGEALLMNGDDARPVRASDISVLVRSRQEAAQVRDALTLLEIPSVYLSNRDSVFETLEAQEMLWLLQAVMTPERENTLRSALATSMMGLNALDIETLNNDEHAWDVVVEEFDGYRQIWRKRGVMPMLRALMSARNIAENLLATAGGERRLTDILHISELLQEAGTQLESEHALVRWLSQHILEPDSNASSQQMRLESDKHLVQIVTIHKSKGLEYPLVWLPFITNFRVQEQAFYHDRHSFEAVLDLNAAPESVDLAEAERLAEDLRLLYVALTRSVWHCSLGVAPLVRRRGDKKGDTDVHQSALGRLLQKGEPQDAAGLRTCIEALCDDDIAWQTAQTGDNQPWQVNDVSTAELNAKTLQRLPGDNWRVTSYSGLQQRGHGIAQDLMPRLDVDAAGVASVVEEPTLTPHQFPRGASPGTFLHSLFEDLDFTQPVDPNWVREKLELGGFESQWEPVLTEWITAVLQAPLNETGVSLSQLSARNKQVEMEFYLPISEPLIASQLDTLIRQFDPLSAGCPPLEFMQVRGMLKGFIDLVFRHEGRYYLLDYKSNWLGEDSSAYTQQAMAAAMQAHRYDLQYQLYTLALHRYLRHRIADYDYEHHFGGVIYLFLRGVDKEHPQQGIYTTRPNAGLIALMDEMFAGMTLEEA
The experiment can be described thus: reconstitution of the complex from separately purified subunits.

Results on 1 molecule are retold here after article PMC2950890 (Nature structural & molecular biology, 2010).

B1: Escherichia coli RecC (natural protein)
chain: MLRVYHSNRLDVLEALMEFIVERERLDDPFEPEMILVQSTGMAQWLQMTLSQKFGIAANIDFPLPASFIWDMFVRVLPEIPKESAFNKQSMSWKLMTLLPQLLEREDFTLLRHYLTDDSDKRKLFQLSSKAADLFDQYLVYRPDWLAQWETGHLVEGLGEAQAWQAPLWKALVEYTHQLGQPRWHRANLYQRFIETLESATTCPPGLPSRVFICGISALPPVYLQALQALGKHIEIHLLFTNPCRYYWGDIKDPAYLAKLLTRQRRHSFEDRELPLFRDSENAGQLFNSDGEQDVGNPLLASWGKLGRDYIYLLSDLESSQELDAFVDVTPDNLLHNIQSDILELENRAVAGVNIEEFSRSDNKRPLDPLDSSITFHVCHSPQREVEVLHDRLLAMLEEDPTLTPRDIIVMVADIDSYSPFIQAVFGSAPADRYLPYAISDRRARQSHPVLEAFISLLSLPDSRFVSEDVLALLDVPVLAARFDITEEGLRYLRQWVNESGIRWGIDDDNVRELELPATGQHTWRFGLTRMLLGYAMESAQGEWQSVLPYDESSGLIAELVGHLASLLMQLNIWRRGLAQERPLEEWLPVCRDMLNAFFLPDAETEAAMTLIEQQWQAIIAEGLGAQYGDAVPLSLLRDELAQRLDQERISQRFLAGPVNICTLMPMRSIPFKVVCLLGMNDGVYPRQLAPLGFDLMSQKPKRGDRSRRDDDRYLFLEALISAQQKLYISYIGRSIQDNSERFPSVLVQELIDYIGQSHYLPGDEALNCDESEARVKAHLTCLHTRMPFDPQNYQPGERQSYAREWLPAASQAGKAHSEFVQPLPFTLPETVPLETLQRFWAHPVRAFFQMRLQVNFRTEDSEIPDTEPFILEGLSRYQINQQLLNALVEQDDAERLFRRFRAAGDLPYGAFGEIFWETQCQEMQQLADRVIACRQPGQSMEIDLACNGVQITGWLPQVQPDGLLRWRPSLLSVAQGMQLWLEHLVYCASGGNGESRLFLRKDGEWRFPPLAAEQALHYLSQLIEGYREGMSAPLLVLPESGGAWLKTCYDAQNDAMLDDDSTLQKARTKFLQAYEGNMMVRGEGDDIWYQRLWRQLTPETMEAIVEQSQRFLLPLFRFNQS
As for B1, the binding result is reported as “binds”.
